Results taken from article PMC2734569, “Functional mapping of the fission yeast DNA polymerase δ B-subunit Cdc1 by site-directed and random pentapeptide insertion mutagenesis” (BMC Molecular Biology, 2009).

Columns and labels:
[1] = target: Cdc1-J17 (Schizosaccharomyces pombe) (UniProt P87324); assay: two-hybrid; LexA-Cdc1 bait (pBTM116 or pBTM116BN) with Gal4-Pol3 prey and co-expressed c-myc-tagged Cdc27 (pAA-Cdc27) in S. cerevisiae CTY10-5d; ONPG liquid culture beta-galactosidase assay, mean of triplicates, as percent of wild-type Cdc1
[2] = target: T1, Cdc1-J1 (Schizosaccharomyces pombe, UniProt P87324 1-462, Thr-GlyValProLeuThr-Gly); assay: two-hybrid; LexA-Cdc1 bait (pBTM116 or pBTM116BN) with Gal4 activation domain-Cdc27 prey (pGAD2F-Cdc27) in S. cerevisiae CTY10-5d; ONPG liquid culture beta-galactosidase assay, mean of triplicates, as percent of wild-type Cdc1; conditions: partners not purified
T1 construct: Cdc1, S. pombe, with a pentapeptide inserted after residue 141; source: yeast two-hybrid fusion, in S. cerevisiae CTY10-5d
T1 sequence (looked up): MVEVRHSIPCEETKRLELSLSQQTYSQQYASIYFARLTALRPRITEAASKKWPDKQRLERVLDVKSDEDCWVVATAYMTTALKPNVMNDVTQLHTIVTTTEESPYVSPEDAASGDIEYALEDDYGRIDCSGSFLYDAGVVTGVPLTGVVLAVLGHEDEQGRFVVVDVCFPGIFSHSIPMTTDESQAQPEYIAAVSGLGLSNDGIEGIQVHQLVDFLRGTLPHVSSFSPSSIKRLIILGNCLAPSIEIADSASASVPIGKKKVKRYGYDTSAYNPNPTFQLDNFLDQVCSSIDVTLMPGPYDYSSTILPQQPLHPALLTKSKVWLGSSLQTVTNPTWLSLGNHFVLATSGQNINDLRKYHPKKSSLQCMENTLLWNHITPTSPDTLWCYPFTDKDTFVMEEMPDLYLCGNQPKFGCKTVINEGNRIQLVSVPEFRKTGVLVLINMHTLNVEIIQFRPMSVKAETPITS

[3] = target: T2, Cdc1-A6 (Schizosaccharomyces pombe, UniProt P87324 1-462, Pro329Ala); assay: as above; conditions: partners not purified
T2 construct: Cdc1, S. pombe, point mutant; source: yeast two-hybrid fusion, in S. cerevisiae CTY10-5d
T2 sequence (looked up): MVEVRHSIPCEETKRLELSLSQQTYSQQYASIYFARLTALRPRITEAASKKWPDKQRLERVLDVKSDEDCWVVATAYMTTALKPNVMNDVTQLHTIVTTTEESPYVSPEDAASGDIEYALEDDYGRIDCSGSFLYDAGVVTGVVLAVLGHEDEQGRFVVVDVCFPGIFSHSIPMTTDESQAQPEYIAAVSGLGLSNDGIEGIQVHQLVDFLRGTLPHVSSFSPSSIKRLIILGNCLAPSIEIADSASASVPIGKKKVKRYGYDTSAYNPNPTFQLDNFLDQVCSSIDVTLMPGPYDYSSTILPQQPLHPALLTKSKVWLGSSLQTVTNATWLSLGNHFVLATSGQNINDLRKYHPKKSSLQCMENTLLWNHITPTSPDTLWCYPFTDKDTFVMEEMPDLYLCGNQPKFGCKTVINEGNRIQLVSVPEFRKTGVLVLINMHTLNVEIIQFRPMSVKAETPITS

[4] = target: T3, Cdc1-A7 (Schizosaccharomyces pombe, UniProt P87324 1-462, Gly344Ala); assay: as above; conditions: partners not purified
T3 construct: Cdc1, S. pombe, point mutant; source: yeast two-hybrid fusion, in S. cerevisiae CTY10-5d
T3 sequence (looked up): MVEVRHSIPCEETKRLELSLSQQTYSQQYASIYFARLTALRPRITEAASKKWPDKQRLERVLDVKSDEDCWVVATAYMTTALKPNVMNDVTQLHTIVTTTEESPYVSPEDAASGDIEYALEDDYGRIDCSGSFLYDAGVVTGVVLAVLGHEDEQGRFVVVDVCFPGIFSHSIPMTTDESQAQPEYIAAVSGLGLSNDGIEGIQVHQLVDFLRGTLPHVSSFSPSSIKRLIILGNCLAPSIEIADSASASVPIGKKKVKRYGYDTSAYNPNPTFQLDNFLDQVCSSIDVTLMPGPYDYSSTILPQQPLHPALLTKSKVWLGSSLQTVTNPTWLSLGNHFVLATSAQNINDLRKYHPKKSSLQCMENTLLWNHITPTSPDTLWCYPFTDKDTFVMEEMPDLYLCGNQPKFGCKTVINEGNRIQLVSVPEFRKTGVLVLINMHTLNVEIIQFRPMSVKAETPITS

[5] = target: T4, Cdc1-J3 (Schizosaccharomyces pombe, UniProt P87324 1-462, Leu-GlyValProLeuLeu-Asp); assay: as above; conditions: partners not purified
T4 construct: Cdc1, S. pombe, with a pentapeptide inserted after residue 62; also called E3; E8; source: yeast two-hybrid fusion, in S. cerevisiae CTY10-5d
T4 sequence (looked up): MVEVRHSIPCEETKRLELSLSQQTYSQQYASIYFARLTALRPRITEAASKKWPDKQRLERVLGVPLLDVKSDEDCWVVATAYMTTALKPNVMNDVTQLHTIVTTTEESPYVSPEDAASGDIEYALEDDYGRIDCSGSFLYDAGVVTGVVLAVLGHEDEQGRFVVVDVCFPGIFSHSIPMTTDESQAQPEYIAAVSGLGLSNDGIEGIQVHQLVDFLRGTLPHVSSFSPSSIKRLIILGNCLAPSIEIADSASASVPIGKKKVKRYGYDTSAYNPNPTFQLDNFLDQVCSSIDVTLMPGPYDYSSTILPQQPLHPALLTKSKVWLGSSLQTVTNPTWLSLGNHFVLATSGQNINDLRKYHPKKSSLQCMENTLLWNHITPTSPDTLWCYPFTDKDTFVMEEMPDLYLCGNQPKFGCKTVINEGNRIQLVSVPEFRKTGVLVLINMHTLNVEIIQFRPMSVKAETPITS

Binder	two-hybrid beta-galactosidase activity, % of wild-type Cdc1 [1]	two-hybrid beta-galactosidase activity, % of wild-type Cdc1 [2]	two-hybrid beta-galactosidase activity, % of wild-type Cdc1 [3]	two-hybrid beta-galactosidase activity, % of wild-type Cdc1 [4]	two-hybrid beta-galactosidase activity, % of wild-type Cdc1 [5]
Pol3 (fission yeast DNA polymerase delta catalytic subunit) (natural protein, Schizosaccharomyces pombe, UniProt P30316 1-1086, looked up, DNA polymerase delta catalytic subunit Pol3, S. pombe; prey plasmid named pACT-Pol3 in the results and pGAD2F-Pol3 in the methods; also called Gal4-Pol3; pACT-Pol3; source: yeast two-hybrid fusion, in S. cerevisiae CTY10-5d) MTDRSSNEGVVLNKENYPFPRRNGSIHGEITDVKRRRLSERNGYGDKKGSSSKEKTSSFEDELAEYASQLDQDEIKSSKDQQWQRPALPAINPEKDDIYFQQIDSEEFTEGSVPSIRLFGVTDNGNSILVHVVGFLPYFYVKAPVGFRPEMLERFTQDLDATCNGGVIDHCIIEMKENLYGFQGNEKSPFIKIFTTNPRILSRARNVFERGEFNFEELFPVGVGVTTFESNTQYLLRFMIDCDVVGMNWIHLPASKYQFRYQNRVSNCQIEAWINYKDLISLPAEGQWSKMAPLRIMSFDIECAGRKGVFPDPSIDPVIQIASIVTQYGDSTPFVRNVFCVDTCSQIVGTQVYEFQNQAEMLSSWSKFVRDVDPDVLIGYNICNFDIPYLLDRAKSLRIHNFPLLGRIHNFFSVAKETTFSSKAYGTRESKTTSIPGRLQLDMLQVMQRDFKLRSYSLNAVCSQFLGEQKEDVHYSIITDLQNGTADSRRRLAIYCLKDAYLPQRLMDKLMCFVNYTEMARVTGVPFNFLLARGQQIKVISQLFRKALQHDLVVPNIRVNGTDEQYEGATVIEPIKGYYDTPIATLDFSSLYPSIMQAHNLCYTTLLDSNTAELLKLKQDVDYSVTPNGDYFVKPHVRKGLLPIILADLLNARKKAKADLKKETDPFKKAVLDGRQLALKVSANSVYGFTGATNGRLPCLAISSSVTSYGRQMIEKTKDVVEKRYRIENGYSHDAVVIYGDTDSVMVKFGVKTLPEAMKLGEEAANYVSDQFPNPIKLEFEKVYFPYLLISKKRYAGLFWTRTDTYDKMDSKGIETVRRDNCPLVSYVIDTALRKMLIDQDVEGAQLFTKKVISDLLQNKIDMSQLVITKALSKTDYAAKMAHVELAERMRKRDAGSAPAIGDRVAYVIIKGAQGDQFYMRSEDPIYVLENNIPIDAKYYLENQLSKPLLRIFEPILGEKASSLLHGDHTRTISMAAPSVGGIMKFAVKVETCLGCKAPIKKGKTALCENCLNRSAELYQRQVAQVNDLEVRFARLWTQCQRCQGSMHQDVICTSRDCPIFYMRIAEHKKLQQSVDLLKRFDEMSW	2%	–	–	–	–
Cdc27 (fission yeast DNA polymerase delta C-subunit) (natural protein, Schizosaccharomyces pombe, UniProt P30261 1-372, looked up, DNA polymerase delta C-subunit Cdc27, S. pombe; prey plasmid pGAD2F-Cdc27; also called pGAD2F-Cdc27; source: yeast two-hybrid fusion, in S. cerevisiae CTY10-5d) MEEWRNFLDIKVINESSLVTVDNLSLQLDISSEKAQEYLNMFYQGNDFLYPIYLIHGQPIDDEINLEIDEESQPISNFPVLQYILCDKSSLQEKQSRLKSGYKTVIFALSSAPLSDFDELLPAVYEIREKDVLYKKEDADKYGFIFNENSVPRVLKKAPSTHSPQLSVPSKTSTIDKTDTRSTEKTKGKDIFSNARNQKGNSSRKNKKAPLENHKEKEPLLPKEEKLSEQAKRERDDLKNIMQLEDESVSTTSVHDSEDDNLDSNNFQLEIGTEAKSAAPDEPQEIIKSVSGGKRRGKRKVKKYATTKDEEGFLVTKEEEVWESFSEDENISTGTSNVVRNKPTTVNIATKKKNTAQSKPQQKSIMSFFGKK	–	< 1%	6%	< 1%	< 1%
